Experimental data from PMC9163188, “USP53 plays an antitumor role in hepatocellular carcinoma through deubiquitination of cytochrome c” (Oncogenesis, 2022).
Blank lines part the entries; values can stand above or below the binder they belong to.

What was measured:
GST-HA-USP53 = biological target: T1, GST-HA-USP53 (UniProt Q70EK8 1-1073); experiment: pull-down; about 100 µg GST-HA-USP53 (or GST-HA) on 50 µL glutathione agarose, 3 washes with PBST, about 100 µg Flag-CYCS fusion protein added, overnight at 4 °C; eluted with 10 mM glutathione in PBS pH 8.0, immunoblot; conditions: both partners purified
T1 construct: also called GST-HA-USP53 fusion protein; source: E. coli, purified
T1 sequence (looked up): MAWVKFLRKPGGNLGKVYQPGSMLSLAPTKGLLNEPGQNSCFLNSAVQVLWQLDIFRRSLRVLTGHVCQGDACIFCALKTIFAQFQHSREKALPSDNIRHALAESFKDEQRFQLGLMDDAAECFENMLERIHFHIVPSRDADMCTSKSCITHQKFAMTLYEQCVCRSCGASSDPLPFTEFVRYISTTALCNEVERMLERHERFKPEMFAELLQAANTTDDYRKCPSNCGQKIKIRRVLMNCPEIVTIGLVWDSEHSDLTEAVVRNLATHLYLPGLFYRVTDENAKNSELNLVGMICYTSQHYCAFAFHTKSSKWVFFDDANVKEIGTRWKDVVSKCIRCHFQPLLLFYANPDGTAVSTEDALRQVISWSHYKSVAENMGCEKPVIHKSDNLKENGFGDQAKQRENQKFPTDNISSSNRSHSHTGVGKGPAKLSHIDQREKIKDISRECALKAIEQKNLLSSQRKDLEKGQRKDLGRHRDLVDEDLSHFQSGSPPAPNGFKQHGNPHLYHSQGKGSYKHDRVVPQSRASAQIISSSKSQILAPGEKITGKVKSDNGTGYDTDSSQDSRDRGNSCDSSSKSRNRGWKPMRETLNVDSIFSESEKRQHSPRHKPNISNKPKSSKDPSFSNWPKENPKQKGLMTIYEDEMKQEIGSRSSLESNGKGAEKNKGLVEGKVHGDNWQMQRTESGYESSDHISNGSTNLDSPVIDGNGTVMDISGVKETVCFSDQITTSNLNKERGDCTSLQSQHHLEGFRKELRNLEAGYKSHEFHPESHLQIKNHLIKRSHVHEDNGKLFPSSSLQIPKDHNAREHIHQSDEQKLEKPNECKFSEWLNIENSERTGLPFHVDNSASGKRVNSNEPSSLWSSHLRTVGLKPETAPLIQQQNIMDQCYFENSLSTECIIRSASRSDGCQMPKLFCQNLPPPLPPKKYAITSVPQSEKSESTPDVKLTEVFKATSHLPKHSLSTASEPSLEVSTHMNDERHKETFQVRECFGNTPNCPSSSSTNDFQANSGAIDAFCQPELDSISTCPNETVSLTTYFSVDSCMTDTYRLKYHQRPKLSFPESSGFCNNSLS

[1] = biological target: T2, Flag-USP53 (of the GST pull-down) (UniProt Q70EK8 1-1073); experiment: pull-down; purified GST-HA-CYCS on glutathione agarose, Flag-USP53 added; same method as for GST-HA-USP53 with Flag-CYCS; conditions: both partners purified
T2 construct: ubiquitin-specific peptidase 53 (USP53); If it came from transfected HEK-293T cells it would be the same construct as m1
T2 sequence (looked up): T1 sequence (looked up)

binding result (GST-HA-USP53): binds
B1: Flag-CYCS (natural protein)
chain: not shown
notes: cytochrome c (CYCS); plasmid provided by …; also called Flag-CYCS fusion protein; source: E. coli (plasmid transfected into E. coli)

binding result [1]: binds
B2: GST-HA-CYCS (natural protein)
chain: not shown
notes: cytochrome c (CYCS); plasmid provided by …; also called GST-HA-CYCS fusion protein; source: purified (same method as for GST-HA-USP53: E. coli)
